Assay results as given in the DeepSol protein solubility set.

Experiment: soluble on expression in E. coli; label from the status in PepcDB or PDB records

Soluble on expression in E. coli, not soluble:
MGSDKIHHHHHHMSTLIRSALLVKFSEIARTLSVDPERMIRHVGADRSCIVSPDLHVPEPWLANVLDASEQASSGAAVGLLMAESWRLSDFGPISLLLQHQPTLRHALGQLETYRHLLSESVLVHVEETDAVAIVRLQLITDRPTPGRQPVELSIGAMLCLMKSMLGGKWKPRSVHFTHGAPANLHVHRRLFGTNVEFGSDFDGIVLDRQDLDRPNPLGDVNLARYAREFLDQHPRGRRISTASNVRRSVHMLLPRGQGSIEQVGQQLGMSARTLQRRLGQEGQEFSSLVNEVRRGLASRYLADLRYPVSQVAMLVGFAEVSTFSRWFSSQFGMPPTRWRTGAEH
MGSDKIHHHHHHMSTLPHLGFQVYQPCAPLLPYVRCYWQITRIAAPETRSTEFMHPEGGTGIIFNFGAPMHFDGWQHRAQCLVTGPTKQSTRLELSGRVDALGIRFWPGAGRAFLKTPLSEMLGQTLTPADLSLALLSDELAERLAVLPTAPERIALLETRLLHYLTAHGSQTQTTEPSMKYALNWIAEQKGQGEIRNLLTEIDISQRQLERLFQQNLGMSPKNYSILQRTGFARELLKSDTDSPLTDIGYQAGFYDQAHFIREFKQVIGITPGQFRSKALLRR
MGSDKIHHHHHHMSTSAIDPVSFSLYAKDFTRFAQELGASFERYGFAVLSDYDLDQARIDAAVDSAKAFFALPVETKKQYAGVKGGARGYIPFGVETAKGADHYDLKEFWHMGRDLPPGHRFRAHMADNVWPAEIPAFKHDVSWLYNSLDGMGGKVLEAIATYLKLERDFFKPTVQDGNSVLRLLHYPPIPKDATGVRAGAHGDINTITLLLGAEEGGLEVLDRDGQWLPINPPPGCLVINIGDMLERLTNNVLPSTVHRVVNPPPERRGVPRYSTPFFLHFASDYEIKTLQNCVTAENPDRYPESITADEFLQQRLREIKLA
MGSDKIHHHHHHMSTVESALTRRIMGIETEYGLTFVDGDSKKLRPDEIARRMFRPIVEKYSSSNIFIPNGSRLYLDVGSHPEYATAECDNLTQLINFEKAGDVIADRMAVDAEESLAKEDIAGQVYLFKNNVDSVGNSYGCHENYLVGRSMPLKALGKRLMPFLITRQLICGAGRIHHPNPLDKGESFPLGYCISQRSDHVWEGVSSATTRSRPIINTRDEPHADSHSYRRLHVIVGDANMAEPSIALKVGSTLLVLEMIEADFGLPSLELANDIASIREISRDATGSTLLSLKDGTTMTALQIQQVVFEHASKWLEQRPEPEFSGTSNTEMARVLDLWGRMLKAIESGDFSEVDTEIDWVIKKKLIDRFIQRGNLGLDDPKLAQVDLTYHDIRPGRGLFSVLQSRGMIKRWTTDEAILAAVDTAPDTTRAHLRGRILKAADTLGVPVTVDWMRHKVNRPEPQSVELGDPFSAVNSEVDQLIEYMTVHAESYRS
MGSDKIHHHHHHMSVNETTNIKKNERSVLLPERHPNHELFICDVLEAIPKDDLASMEHPVFSLATKPDTRTLIYEHRDVKIQITPSVKGLATIFDKDLLIFCISQMIAKKNRGEPLSQNVRLHAYDLLIWTNRETSGDAYRRLIEAFERLRGTTIVTNIKADGEEITTGFGLIDSFKVVRHTATGRMSELEVRISDWMFKIIQGSQVLTLSRDYFRLRKPIERRIYEIARKHCGEQDEWRISIELLQKKTGASSHERAFKAMVRELVKCDHLPDYSVTLEDDMVIFYNRAGLSEKIPLTAFPQLNAETYNDARTVAPGYDVYYLEQEWRDMWVDTGMPLLHNPDKAFIAFCKSRAKRRPMGR
MGSDKIHHHHHHMSVNPLFKVILHPFIKESIASLKAMTNLTGVAGDPFMDKVEDFRFKGYAVCSDVTGSLDGVIMMHHYPETAIAIGNSVCQNMFNETYAFDAINDDLRNALAEWGNTIVGRSTDLHSRHKLEYGFSSPYFVEDLTEMDKYLVGVKQVITVPIMVEGIGRYYFNLLIRDVVEQVANVDIDAQSIDVENTHTTPLPLTSTVLVVDDSAMIRKAISRFLNNLGYHNVIEADDGIGAIEAVKAGKVDFIFMDVVMTRLNGDAALAELRNMGSQVPVVMLSSVTDNILVKQCQKHGISGFIFKPINANNGAETIAKYLKIAAAVAI
MGSDKIHHHHHHMSVQESVGGDVTGWWPSDNESLSPYPLYRERFCREGGLQPVFSGRTVLLPLRPGLLLSMREGQALTDLRGKREVGPAMHLEILFAAEGYSVVSGSTERYPFKPNTVSLQVTSSAVVAEFFIPAGAVIRSLAVRFSGLYLDHLASKGGFAALCSGGGDPLLLSRGVDLVMRPLSPALRPLASQILATEGATDGERLFLEAKILELISVVLSTPASGGGQSQTEPTKTALSRRDHKKIGQARELLIGDLDKTWKIKDLARHVGMNENKLKAGFRQIYDNSIYAYLQDWRMRAASHRLKQGEDSVTGVALSVGYSNPAHFAKVFRRYFGVSPSRYAEDGAPGPKKDNETY
MGSDKIHHHHHHMSYELARVPRGEHHFHSVRVRTGDVLGLIEKTAFFELDDTLFVYPFYQRFSYQVNERHQEDGVSGSSPIHQHHSSVAASVRNYQPGDRFAALDWKTSARRSQLMTKEFEPSRSKNLFLLMDRFSSDAFEEVVSVTASILHSVLKNGAGAGLASIGKEKNIFPIQEGDQHFKHMLRHLAIAHCDAADPISRYAREELGKPSVRQADQVVVTGQLTEDMLHLAEIGGGRVTVILAKEKDAELSQAENVMIERMMKRQIRVRIMRGGRVSRVV
MGSDKIHHHHHHMTALRQDIDPNGLLEYSVVYTDRALNHMSKAFQEVMNDLLSNLKTVYNAEAAVIIPGSGTYGMEAVARQLTIDEDCLIIRNGWFSYRWTQILEKGKFAKSSTVLTAERTEDTEAPKPFAPVDIETAVAKIKEDKSAIVYAPHVETSSGIILSEEYIKALSEAVHSVGGLLVIDCIASGCVWLDMKELGIDVLISAPQKGWSSTPCAGLVMLSAAAIKKVESTESNCFSLDLKQWLTIMRAYENGGHAYHATMPTDSLRQFRDAILEAKEIGFDILRDAQWELGNRVRKVLTDKGIESVAAEGFEAPGVVVSYTERDDMHKGSAFAEAGLQIAAGVPLKVGEPDNFKTFRLGLFGLDKLTDIDGTVERFEKALDEVLAK
MGSDKIHHHHHHMTDNFFHGVRVRESTDLVTAINDIDSTVIGIVAIADDADPEMFPLNTPVLLTRVNNALGKAGKTGSLYKSLKAISDQCSTKVIVVRVAAATDGDDNQTQSQLVIGGTAADGSYTGMYAFLTAEQKTGYRPRILAVPDHDTIEVATQLGVIAQKLRAFFYAYCHNCETIAEAKAYRETLNYREVMPIWPNFIAYNTLTGENEEFPAVAYACGLRALIDNTQGWHKSLSNVAVNNVLGISKDVFWALQAEDSDANELNAHEITTLIKRDGFRFWGNRTTDPDKEYIFEVYTRTAQILADSIAEAQFTTVDKPMTPGNVKDVVSGINAKLQALVTAGKLIGAACWFDIVDNPTTGLRQGKCIVRYNYTPVPPLEDLSLYQTFTDQYFETAFSSLGGA
MGSDKIHHHHHHMTDNIKSRRSAVPGCAIHCHDCSMGTLCIPFTLNNNELDQLDDIIERKKPIQKGEQIFKSGDSLKSLYAIRSGTIKSYTITEQGDEQITGFHLAGDVIGFDGIHSQIHQSFAQALETSMVCEIPFDTLDELSGTMPKLRQQIMRLMSNEIQSDQEMILLLSKKNAEERLAAFISNLASRFGSRGFSPKEFRLTMTRGDIGNYLGLTVETISRLLGRFQKAELIEVKGKYITIVDFDSLNKLAGNNKIGR
MGSDKIHHHHHHMTDWHFYEPARGHALRHDPLNAIVAPRPIGWISTISSDGVRNLAPYSFFNLFSYKPPIVGFCSLGAKDSLANARDTGEFVWNLATRPLVEAMNASAAMVPAHVDEFELAKLETLPSAKVRPARVAASPVQFECVVTQIVQLEAQGGAALPAWLVLGEAVAIHIDRQLITNGVYQTAQARPILRGGGPADYFEIGAGQLFTLERPGD
MGSDKIHHHHHHMTEAHNACCHPSGTAAGHHGAGKASTDMMDAVDRRLLDIIQTGFPIEPRPYAVLGETLGITECEALARVRALRERKVIRRLGANFDSWKLGFRSTLCAAKVPEDRIDAFVAEVNRHVNVTHNYLRNHEYNIWFTCICPSWEQVCSLLDGITERTGIPILNLPATKLYKIRVDFRMD
MGSDKIHHHHHHMTERIRIGISSCLLGNKVRHDGGHKFDSYIVNVLGRYLDFVPVCPEVECGLPTPREPMRLAGDVHSPRLMTSKTWQDKTEQMQTWADSKVRELEGQGLCGFIFKRGSPSSGMERVKVYPFTDPREVKNVGAPVLKGSGLFARTFMEHFPLLPVEEEGRLNDPVLRENFIERLFVVRRWYDLLESGMAPGAVVEFHTRHKLLLLAHSTQKYREMGRLVAAVREYSPEQFRTEYRRLLMEALSVRATAGRHANVQQHIMGYFRRQLTTDEKQELVEIIDRYRNGLVPLIVPVTMLNHYVRKYGDEYLAGQYYLNPHPVELKLRNHI
MGSDKIHHHHHHMTESEKQKLGKTLWAIADQLRGAMNADDFRDYMLAFLFLRYLSDNYEAAAQKELGTDYPDLPSDVLRQTGVNTPLQAWYEENLDDVSEFEKQMRRKVHYVIEPQYLWGNIAEMARTQDDELLHTLQKGFKYIEEESFASTFRGLFSEINLASDKLGKTYTERNARLCKIIAEIAKGLGQFSTDSDTLGDAYEYLIGQFAAGSGKKAGEFYTPQRISDILSAIVTLDSQEPATGKRSHLDSVFDFACGSGSLLLNVRRLMGPHGIGKIYGQEKNITTYNLARMNMLLHGVKDSEFEIFHGDTLLNEWDMLRETNPAKMPKFDAVVANPPFSYRWEPSEALGEDVRFKNYGLAPKSAADFAFLLHGFHFLKQDGVMAIILPHGVLFRGGAEARIRTKLLKDGHIDTVIGLPANLFFSTGIPVCILVLKKCKKPDDVLFINAAEHFERGKRQNQLLPEHIDKIIDTYRYRKEEPRYSRRVSMEEIEKNDFNLNISRYVSTAITEEEVDLNAVIGQLKAIEQEIYQAKSKHNEFLKELGLPLLP
MGSDKIHHHHHHMTGRNILTESESDRGRVLFSPAFRRLQQKAQVFSMEPNAAVRSRLTHSFEVSQIGRYIADLLSEKLGIATEQQAGALVNFVETACLMHDIGNPPFGHFGEEAIKKWFEDNGERCLRLSIGRPKPSDGACPDQAKVRDALVDFADFDGNPQGLRIVARLQWNTDEFGLNLTKTSLASFMKYIRMAGGEKSGIFTKKAGYFTTERDLVESVWREFGYELPQRFPLAYIMEAADDIAYCISDLEDSFEKDIVRPDDALSYVEEQYERHEFEDGDPKHVDIRRAIRQMRAKERESGGEFTFTDFRTSLNNVIVNYVADRYVENHSKILDGTLESLIPGNEPPGAILNAIRKFCREHVYTHESVQRVELAGYNAIRGLLEQCSSLLCISAEGFRAARANEKQDAKGQALVLEPKLLRLFPEKYIKVYDYHLKQAGGDEADPFLEWTYRAHLIVDFISGMTDDFAMTTYRTLAGMRL
MGSDKIHHHHHHMTGTANYVEFEPTRMGLYEASIRVKHECPYRRISERYPDLTIREWPLSDCQVLEITTETTPTDELLDEINEIGTVLYESADDNGYHVVTQSCLCSLEDSVIDRFEEHNCLYQSPTIYRQGWEHYTVVAFDSEDVRELLDSLRSDREIELLSKTSISETQIPHSMLAPANQLFEDITDRQLAALQLALESGYYEQPRKTSLRDLAERTAVARSTYEEHLRKAENKLLTNAGQFLRLVTATSTTNPLGVESGRRTEQTAD
MGSDKIHHHHHHMTHDDVIQAIVNTIRDVPGIRALFLSGSYGNGLADEYSDIDFVLVSEDGATDAVAEAWRNAVEKTGEIVLWWDRTTVPVLINAITEDWTRTDVIILKPDQMGRQTKDALKPLFDHDNIYDTLKDAAPKPGPDLKRFRYEVEEFIRILGLLQLAVGREEYINGVLGVSLLRSKLVNLLIEETDAPNRGGILHLNRLITEDQKQVLISLPPAVPERDAMISAHLAYAAAYLPRARRRAERLGMEWPERFEAVTWSRLEKTLSIRRPYD
